What was measured:
FLAG-FEN1 (full length) [1] = molecular target: FLAG-FEN1 (full length) (UniProt P39748)
FLAG-FEN1 (full length) [2] = molecular target: FLAG-FEN1 (full length) (UniProt P39748 1-380); experiment: cell-based or functional assay
FLAG-FEN1 (full length) (UniProt P39748 1-380), sequence (P39748 whole entry): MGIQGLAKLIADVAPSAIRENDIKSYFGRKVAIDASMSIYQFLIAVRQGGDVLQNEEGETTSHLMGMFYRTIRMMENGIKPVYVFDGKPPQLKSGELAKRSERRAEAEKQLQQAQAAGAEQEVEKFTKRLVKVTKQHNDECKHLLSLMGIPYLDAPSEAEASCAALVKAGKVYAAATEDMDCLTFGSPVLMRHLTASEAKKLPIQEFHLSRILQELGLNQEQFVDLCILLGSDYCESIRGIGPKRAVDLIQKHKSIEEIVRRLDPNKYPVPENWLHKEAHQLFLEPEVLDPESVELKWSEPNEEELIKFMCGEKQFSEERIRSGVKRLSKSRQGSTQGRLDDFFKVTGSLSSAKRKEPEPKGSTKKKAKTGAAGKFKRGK

FLAG-FEN1 (full length) (UniProt P39748), sequence (P39748 whole entry): as above

“HCMV immediate early protein 1 (IE1) expressed in AD169-infected cells (natural protein)” was tested, and the normalized pFEN1 (Ser187)/FEN1 ratio by densitometry of Western blots, 293T cells transfected with FLAG-FEN1 and untagged IE1 wt (FEN1 alone set to 1) (FLAG-FEN1 (full length) [1]) was 2.4.

B1: Myc-IE1 1–382 5x mut (domain or fragment, human cytomegalovirus, UniProt P13202 1-382, looked up)
chain: MESSAKRKMDPDNPDEGPSSKVPRPETPVTKATTFLQTMLRKEVNSQLSLGDPLFPELAEESLKTFEQVTEDCNENPEKDVLAELVKQIKVRVDMVRHRIKEHMLKKYTQTEEKFTGAFNMMGGCLQNALDILDKVHEPFEEMKCIGLTMQSMYENYIVPEDKREMWMACIKELHDVSKGAANKLGGALQAKARAKKDELRRKMMYMCYRNIEFFTKNSAFPATTNGCSQAMAALQALPQCSPDEIMAYAQKIFKILDEERDKVLTHIDHIFMDILTTCVETMCAEYKVTSDACMATMYGGISLLSEFCAVLCCYVLEETSVMLAKRPLITKPEVISVMKRRIEEICMKVFAQYILGADPLRVCSPSVDDLRAIAEESDEEE
For B1, the “normalized pFEN1 (Ser187)/FEN1 ratio by densitometry of Western blots, 293T cells transfected with FLAG-FEN1 and full-length IE1 5x mut (FEN1 alone set to 1)” value (FLAG-FEN1 (full length) [2]) was 1.5 ratio.
